Laboratory results as given in patent publication US20140271653A1 (Regeneron, published 2014).
Where two headings read alike, the source gives them in different places.

B1: H1M3627N (antibody, V domains shown)
VH: EVQLVESGGGLVQPGGSLRLSCAASGFTISNYEMNWVRQAPGKGLEWVSYISTSGITIYYADSVQGRFTISRDNAKNSLYLQLNSLRAEDTAVYYCARGYCTNGVCYPHYYYSDMDVWGQGTTVTVSS
VL: DIQMTQSPSSLSASVGDRLTITCRASQTISTYLNWFQQKVGNAPKLLIYSTSSLQSGVPARFSGSGSGTDFTLTISSLQPEDFATYYCQQSYSSPPTFGQGTKVEIK
B2: H1H3627N (antibody, V domains shown)
VH: EVQLVESGGGLVQPGGSLRLSCAASGFTISNYEMNWVRQAPGKGLEWVSYISTSGITIYYADSVQGRFTISRDNAKNSLYLQLNSLRAEDTAVYYCARGYCTNGVCYPHYYYSDMDVWGQGTTVTVSS
VL: DIQMTQSPSSLSASVGDRLTITCRASQTISTYLNWFQQKVGNAPKLLIYSTSSLQSGVPARFSGSGSGTDFTLTISSLQPEDFATYYCQQSYSSPPTFGQGTKVEIK
B3: H1M3622N (antibody, V domains shown)
VH: QVQLQQWGAGLLKPSETLSLTCAVYGGSLSDYYWSWIRQPPGKGLEWIGEINHSGDTNYDPSLKSRLTISVDTSKNQFSLKLNSVTAADTAVYYCASLYFNFWMWGRGALVTVSS
VL: DIVMTQTPLSSPVILGQPASISCRSSQSLVYSDGNTYLSWLQQRPGQPPRLLIYKISNRFSGVPDRFSGSGTGTDFTLKISRVEAEDVGIYYCMQTTQFPLTFGGGTKVEIK
B4: H1H3592P3 (antibody, V domains shown)
VH: EVQLVESGGDLVQPGRSLRLSCVASGFTFDDYAMHWVRQAPGKGLEWVSGVSWSGSTVGYADSVKGRFTVSRDNAQKSLYLQMNSLRAEDTALYYCVKDAYKFNYYYYGLDVWGQGTTVTVSS
VL: EIVMTQSPATLSVSPGERATLSCRASQTILSNLAWYLQKPGQAPRLLIYGASTRATGLPARFSGSGSGTEFTLTISSLQSEDFAVYYCQQYNNWPLTFGGGTKVEIK
B5: H1M3624N (antibody, V domains shown)
VH: QVQLEQSGAEVKKPGTSVRISCKASGDIFTGYYMNWVRQAPGQGLEWMGWINTNSGGTYFSQRFQGRVTLTRDTSIRTAYMELSRLRSDDTAVYYCARMFYDILTGSDVFDIWGQGTMVTVSS
VL: DIQMTQSPSSLSASVGDRVTITCRASQDIRNDLGWYHQKPGKAPKCLIYGASSLQSGVPSRFSGSGSGTEFTLTISSLQPEDFATYYCLQHKNYMYTFGQGTKLEIK
notes: also called H1M2634N
B6: Control II (motavizumab sequence) (antibody, V domains shown)
VH: QVTLRESGPALVKPTQTLTLTCTFSGFSLSTAGMSVGWIRQPPGKALEWLADIWWDDKKHYNPSLKDRLTISKDTSKNQVVLKVTNMDPADTATYYCARDMIFNFYFDVWGQGTTVTVSS
VL: DIQMTQSPSTLSASVGDRVTITCSASSRVGYMHWYQQKPGKAPKLLIYDTSKLASGVPSRFSGSGSGTEFTLTISSLQPDDFATYYCFQGSGYPFTFGGGTKVEIKR

Legend:
[1] = biological target: T1, RSV-F of RSV subtype A strain A2 (1540) (respiratory syncytial virus subtype A, …, UniProt P03420 26-574); assay: cell-based or functional assay
RSV-F.mmh [2] = biological target: T2, RSV-F.mmh (Respiratory Syncytial Virus); assay: SPR (Biacore), mAb captured via Fc, soluble RSV-F.mmh injected, 25 C
T2 construct: also called recombinant RSV-F; soluble monomeric RSV-F
Procedure: Measurements were conducted on a Biacore 4000 or T-200 instrument. […] All Biacore binding studies were performed in HBST running buffer (0.01 M HEPES pH 7.4, 0.15 M NaCl, 3 mM EDTA, 0.005% v/v surfactant P20). Different concentrations of RSV-F.mmh prepared in HBST running buffer were injected over the anti-RSV-F monoclonal antibody captured surface at a flow rate of 30 μl/min (Biacore 4000) or at a flow rate of 50 μl/min (Biacore T-200) and the association of RSV-F.mmh to captured monoclonal antibody was monitored for 6 min or 3 min respectively. The dissociation of RSV-F.mmh from the monoclonal antibody in HBST running buffer was monitored for 8-10 min at 25° C. Kinetic association (kₐ) and dissociation (kd) rate constants were determined by processing and fitting the data to a 1:1 binding model using Scrubber 2.0 curve fitting software. Binding dissociation equilibrium constants (KD) and dissociative half-lives (t½) were calculated from the kinetic rate constants as: KD (M)=kd/kₐ; and t_{1/2} (min)=(ln 2/(60*kd).

[3] = biological target: T1, RSV-F of RSV subtype A strain A2 (1540); assay: cell-based or functional assay; remark: listed apart in the source
[4] = biological target: T3, RSV-F of RSV subtype A strain Long (respiratory syncytial virus subtype A, …, UniProt P12568 26-574); assay: cell-based or functional assay
[5] = biological target: T4, RSV-F of RSV subtype B strain 1580 (respiratory syncytial virus subtype B, …); assay: cell-based or functional assay
[6] = biological target: T5, RSV-F of RSV subtype B strain 9320 (respiratory syncytial virus subtype B, …); assay: cell-based or functional assay
RSV-F.mmh [7] = biological target: T2, RSV-F.mmh; assay: SPR (Biacore), mAb captured via Fc, soluble RSV-F.mmh injected, 25 C; remark: listed apart in the source
[8] = biological target: T1, RSV-F of RSV subtype A strain A2 (1540); assay: cell-based or functional assay; remark: listed apart in the source
[9] = biological target: T1, RSV-F of RSV subtype A strain A2 (1540); assay: cell-based or functional assay; remark: listed apart in the source
[10] = biological target: T4, RSV-F of RSV subtype B strain 1580; assay: cell-based or functional assay; remark: listed apart in the source
[11] = biological target: T1, RSV-F of RSV subtype A strain A2 (1540); assay: cell-based or functional assay; remark: listed apart in the source
[12] = biological target: T3, RSV-F of RSV subtype A strain Long; assay: cell-based or functional assay; remark: listed apart in the source
[13] = biological target: T5, RSV-F of RSV subtype B strain 9320; assay: cell-based or functional assay; remark: listed apart in the source
[14] = biological target: RSV-F of RSV subtype B strain 18537 (respiratory syncytial virus subtype B, …, UniProt P13843 26-574); assay: cell-based or functional assay
[15] = biological target: RSV-F of RSV subtype B strain 1400 (respiratory syncytial virus subtype B, …); assay: cell-based or functional assay
[16] = biological target: RSV-F of RSV subtype B strain 1A2 (respiratory syncytial virus subtype B, …); assay: cell-based or functional assay
[17] = biological target: RSV-F of RSV subtype A clinical isolate A2001/2-20 (respiratory syncytial virus subtype A, …); assay: cell-based or functional assay
[18] = biological target: RSV-F of RSV subtype A clinical isolate A2001/3-12 (respiratory syncytial virus subtype A, …); assay: cell-based or functional assay
[19] = biological target: RSV-F of RSV subtype A clinical isolate A1997/12-35 (respiratory syncytial virus subtype A, …); assay: cell-based or functional assay
[20] = biological target: RSV-F of RSV subtype A clinical isolate A1998/3-2 (respiratory syncytial virus subtype A, …); assay: cell-based or functional assay
[21] = biological target: RSV-F of RSV subtype A clinical isolate A1998/12-21 (respiratory syncytial virus subtype A, …); assay: cell-based or functional assay
[22] = biological target: RSV-F of RSV subtype A clinical isolate A2000/3-4 (respiratory syncytial virus subtype A, …); assay: cell-based or functional assay
[23] = biological target: RSV-F S173Y of escape mutant RSV/A S173Y (respiratory syncytial virus subtype A, …, UniProt P03420 26-574); assay: cell-based or functional assay
[24] = biological target: RSV-F S173T of escape mutant RSV/B S173T (respiratory syncytial virus subtype B, …); assay: cell-based or functional assay
[25] = biological target: RSV-F T174K of escape mutant RSV/B T174K (respiratory syncytial virus subtype B, …); assay: cell-based or functional assay
[26] = biological target: RSV-F S173T/T174K of escape mutant RSV/B S173T/T174K (respiratory syncytial virus subtype B, …); assay: cell-based or functional assay

| Binder | IC50 [pM] for RSV A2 Neutralization, Trial 1 [1] | IC50 [pM] for RSV A2 Neutralization, Trial 2 [1] | IC50 [pM] for RSV A2 Neutralization, Trial 3 [1] | IC50 [pM] for RSV A2 Neutralization, Trial 6 [1] | Kd (RSV-F.mmh [2]) | koff (RSV-F.mmh [2]) | kon (RSV-F.mmh [2]) | t½ (RSV-F.mmh [2]) | IC50 [pM] for RSV A2 Neutralization, Trial 7 [1] | RSV-A2 (1540) Neutral. IC50 [pM] [3] | RSV-A2 (1540) neutralization, Fold Improvement Relative to Control 1 [3] | RSV-Long Neutral. IC50 [pM] [4] | RSV-Long neutralization, Fold Improvement Relative to Control 1 [4] | RSV - 1580 Neutral. IC50 [pM] [5] | RSV - 1580 neutralization, Fold Improvement Relative to Control 1 [5] | RSV-9320 Neutral. IC50 [pM] [6] | RSV-9320 neutralization, Fold Improvement Relative to Control 1 [6] | Kd (RSV-F.mmh [7]) | koff (RSV-F.mmh [7]) | kon (RSV-F.mmh [7]) | further results |
| --- | --- | --- | --- | --- | --- | --- | --- | --- | --- | --- | --- | --- | --- | --- | --- | --- | --- | --- | --- | --- | --- |
| B1 | 4 pM | 4 pM | 5 pM | 10 pM | 2.02 nM | 0.000523 s⁻¹ | 259000 M⁻¹ s⁻¹ | 0.367 h |  |  |  |  |  |  |  |  |  |  |  |  |  |
| B2 |  |  |  |  |  |  |  |  | 3 pM | 2.6 pM | 138 fold | 7.3 pM | 73 fold | 6.7 pM | 55 fold | 11 pM | 42 fold | 0.581 nM | 0.000149 s⁻¹ | 256000 M⁻¹ s⁻¹ | t½ (RSV-F.mmh [7]): 1.3 h |
| B3 | 320 pM | 82 pM |  |  | 2.38 nM | 9.13e-05 s⁻¹ | 38400 M⁻¹ s⁻¹ | 2.12 h |  |  |  |  |  |  |  |  |  |  |  |  |  |
| B4 |  |  |  |  |  |  |  |  | 10 pM | 10 pM | 36 fold | 15 pM | 35 fold | 31 pM | 12 fold | 100 pM | 4.6 fold | 8.43 nM | 0.000747 s⁻¹ | 88600 M⁻¹ s⁻¹ | IC50 of blocking viral fusion (antibody added after viral attachment at 4 C, infection read by ELISA) [8]: 0.23 nM; Neutralization IC50, pM (microneutralization, wt subtype A) [9]: 177 pM; Neutralization IC50, pM (microneutralization, wt subtype B) [10]: 290 pM; IC50 (pM), RSV micro-neutralization, A/A2 [11]: 140 pM; IC50 (pM), RSV micro-neutralization, A/Long [12]: 44 pM; IC50 (pM), RSV micro-neutralization, B/9320 [13]: 151 pM; IC50 (pM), RSV micro-neutralization, B/18537 [14]: 230 pM; IC50 (pM), RSV micro-neutralization, B/1400 [15]: 33 pM; IC50 (pM), RSV micro-neutralization, B/1A2 [16]: 48 pM; IC50 (pM), RSV micro-neutralization, clinical isolate [17]: 43 pM; IC50 (pM), RSV micro-neutralization, clinical isolate [18]: 66 pM; IC50 (pM), RSV micro-neutralization, clinical isolate [19]: 40 pM; IC50 (pM), RSV micro-neutralization, clinical isolate [20]: 35 pM; IC50 (pM), RSV micro-neutralization, clinical isolate [21]: 34 pM; IC50 (pM), RSV micro-neutralization, clinical isolate [22]: 50 pM; t½ (RSV-F.mmh [7]): 0.25 h |
| B5 | 540 pM | 270 pM | 92 pM |  | 1.02 nM | 0.000183 s⁻¹ | 179000 M⁻¹ s⁻¹ | 1.05 h |  |  |  |  |  |  |  |  |  |  |  |  |  |
| B6 | 50 pM | 30 pM | 23 pM | 12 pM |  |  |  |  | 12 pM | 14 pM | 25 fold | 65 pM | 8.2 fold | 43 pM | 8.7 fold | 56 pM | 8.2 fold |  |  |  | IC50 [pM] for RSV A2 Neutralization, Trial 4 [1]: 20 pM; IC50 [pM] for RSV A2 Neutralization, Trial 5 [1]: 12 pM; Neutralization IC50, pM (microneutralization, wt subtype A) [9]: 108 pM; Neutralization IC50, pM (microneutralization, wt subtype B) [10]: 260 pM; Neutralization IC50, pM (microneutralization, escape mutant) [23]: 170 pM; Neutralization IC50, pM (microneutralization, escape mutant) [24]: 177 pM; Neutralization IC50, pM (microneutralization, escape mutant) [25]: 108 pM; Neutralization IC50, pM (microneutralization, escape mutant) [26]: 218 pM; IC50 (pM), RSV micro-neutralization, A/A2 [11]: 202 pM; IC50 (pM), RSV micro-neutralization, A/Long [12]: 83 pM; IC50 (pM), RSV micro-neutralization, B/9320 [13]: 76 pM; IC50 (pM), RSV micro-neutralization, B/18537 [14]: 187 pM; IC50 (pM), RSV micro-neutralization, B/1400 [15]: 38 pM; IC50 (pM), RSV micro-neutralization, B/1A2 [16]: 40 pM; IC50 (pM), RSV micro-neutralization, clinical isolate [17]: 74 pM; IC50 (pM), RSV micro-neutralization, clinical isolate [18]: 129 pM; IC50 (pM), RSV micro-neutralization, clinical isolate [19]: 41 pM; IC50 (pM), RSV micro-neutralization, clinical isolate [20]: 36 pM; IC50 (pM), RSV micro-neutralization, clinical isolate [21]: 68 pM; IC50 (pM), RSV micro-neutralization, clinical isolate [22]: 88 pM |
